Results published in paper doi:10.1101/2025.04.28.650843 (bioRxiv, 2025).

Target: the molecule itself
Test: cryo-EM structure; single-particle reconstruction of intact PBS isolated from Synechococcus 7942 in 0.75 M K/Na-PO4 pH 7.0 with 0.0125% glutaraldehyde; diluted on the grid with 50 mM Tris pH 7.0; 2.98 Å

B1: phycocyanin (PC) (complex)
chain 1: not shown
chain 2: MTFDAFTKVVAQADARGEFLSDAQLDALSRLVAEGNKRIDTVNRITGNASSIVANAARALFAEQPSLIAPGGNAYTNRRMAACLRDMEIILRYVTYAVFTGDASILDDRCLNGLRETYLALGVPGASVAEGVRKMKDAAVAIVSDRNGITQGDCSAIISELGSYFDKAAAAVA
modifications: covalently attached phycocyanobilin (PCB), positions not printed | covalently attached phycocyanobilin (PCB), positions not given
notes: as m5; as m2; The alpha-beta monomer; it forms the hexamers of the peripheral rods (72 alpha-beta monomers in six rods of two hexamers each); also called alpha-beta monomer of phycocyanin
  stoichiometry N: 6
